Earlier results, collected in publication PMC3740200 (Dalton transactions (Cambridge, England : 2003), 2012).
Read-outs that look alike come from different tables or passages of the source.

Columns and labels:
[1] = 4 °C, ref [16]
[2] = ref [1]; for turnover number: 100 mM phosphate buffer pH 7, 25 °C
[3] = ref [2]
[4] = ref [16]

B1: WT DaCld: wild-type chlorite dismutase from Dechloromonas aromatica, heme-binding pentameric enzyme (protein, UniProt Q47CX0 32-282, looked up)
Chlorite dismutase: QQAMQPMQSMKIERGTILTQPGVFGVFTMFKLRPDWNKVPVAERKGAAEEVKKLIEKHKDNVLVDLYLTRGLETNSDFFFRINAYDLAKAQTFMREFRSTTVGKNADVFETLVGVTKPLNYISKDKSPGLNAGLSSATYSGPAPRYVIVIPVKKNAEWWNMSPEERLKEMEVHTTPTLAYLVNVKRKLYHSTGLDDTDFITYFETDDLTAFNNLMLSLAQVKENKFHVRWGSPTTLGTIHSPEDVIKALAD
- kcat ([1]; acidic form): 120 ± 5 × 10^2 s^-1
- kcat ([1]; alkaline form): 460 s⁻¹
- turnover number [2]: 1.7×10^4 ClO2^− ions/heme
- turnover number ([2]; listed as WT): 17000 ClO2^− ions/heme
- turnovers before irreversibly inactivating [2]: ~ 20,000 turnovers
- first order kobs of second step (PAA-independent) ([3]; pH 6.0): 0.3 s⁻¹
- second order rate constant k, formation of Compound I with PAA ([3]; pH 6): 190000 M⁻¹ s⁻¹
- second order rate constant k, reaction with PAA ([3]; pH 8): 1.3e+06 M⁻¹ s⁻¹
- pKa of alkaline transition (5cHS to 6cLS) [4]: 8.9
